Measured values published in patent publication US20190031783A1 (AbbVie / Abbott, published 2019).
Positions count from the first letter of the chain named. Several values for one entry are separate records, joined by “and”; a condition that tells them apart may be missing. Equal values may be shown once. One block for each binder: values may come before it.

Assays:
[1] = molecular target: T1, purified recombinant human DLL4 extracellular domain (ECD) (human, UniProt Q9NR61 27-529); experiment: SPR (Biacore), DVD captured via anti-human Fc, DLL4 ECD injected, 25 C
T1 construct: extracellular domain; also called human DLL4529; huDLL4
Description: For DLL4 binding kinetic measurements the assay buffer was HBS-EPB: 10 mM Hepes, pH7.5, 150 mM NaCl, 3 mM EDTA, 0.005% Tween 20, 0.1 mg/ml BSA (Sigma A7906). For VEGF binding kinetic measurements the assay buffer was HBS-EP+(3N01B): 10 mM Hepes, pH7.5, 300 mM NaCl, 3 mM EDTA, 0.05% Tween 20, 0.1 mg/ml BSA (Sigma A7906). For example, approximately 9000 RU of goat anti-human Fc specific polyclonal antibody (Thermo Fisher Scientific Inc., Rockford, Ill.) diluted in 10 mM sodium acetate (pH 4.5) is directly immobilized across a CM5 research grade biosensor chip using a standard amine coupling kit according to manufacturer's instructions and procedures at 25 ug/ml. Unreacted moieties on the biosensor surface are blocked with ethanolamine. For kinetic analysis, rate equations derived from the 1:1 Langmuir binding model are fitted simultaneously to multiple antigen injections (using global fit analysis) with the use of Scrubber 2 (BioLogic Software), Biacore Biaevaluation 4.0.1 software or Biacore T100 Evaluation software. Purified antibodies are diluted in running buffer for capture across goat anti-human Fc reaction surfaces. Antibodies to be captured as a ligand (1 ug/ml) are injected over reaction matrices at a flow rate of 10 ul/min. During the assay, all measurements are referenced against the capture surface alone (i.e. with no captured antibody). […] The equilibrium dissociation constant KD (M) of the reaction between antibodies and the target antigen is then calculated from the kinetic rate constants by the following formula: KD=Koff/Kₒₙ. Binding is recorded as a function of time and kinetic rate constants are calculated.

[2] = molecular target: T1, purified recombinant human DLL4 …; experiment: Notch competition ELISA: inhibition of biotin DLL4 ECD binding to coated human Notch-1
Description: Plates were then washed 3× with wash buffer (PBS, 0.05% Tween-20) and blocked with 200 μl/well blocking buffer (D-PBS, 1% BSA, 1 mM CaCl₂, 0.05% Tween-20) for 1 hour at 25° C. […] Assay plates were washed after blocking, and incubated with DLL4/antibody mixtures (100 μl/well, 1 hour at 25° C. with shaking). Plates were washed again and 100 μl/well of streptavidin conjugated with HRP (Fitzgerald #65R-S104PHRPx, diluted 1:5,000 in blocking buffer) was added for 1 hour at 25° C. with shaking. After a final wash, plates were developed using 100 μl/well substrate (TMB Sigma #T8665), and the reaction was stopped using 100 μl/well 1N HCl, and the absorbance was read at 450 nm. Data was analyzed using Graphpad Prism software and IC₅₀ values were reported as the concentration of antibody required to achieve 50% reduction of DLL4 binding to Notch1.

[3] = molecular target: human DLL4, full-length, expressed on HEK293G cells (human, UniProt Q9NR61 27-685); experiment: cell-based or functional assay

B1: Av-GS6-h1A11.1 (bispecific antibody, human IgG1)
VH: EVQLVESGGGLVQPGGSLRLSCAASGYTFTNYGMNWVRQAPGKGLEWVGWINTYTGEPTYAADFKRRFTFSLDTSKSTAYLQMNSLRAEDTAVYYCAKYPHYYGSSHWYFDVWGQGTLVTVSSGGGGSGEVQLVESGGGLVQPGGSLRLSCAASGFTFSNFPMAWVRQAPGKGLEWVATISSSDGTTYYRDSVKGRFTISRDNAKNSLYLQMNSLRAEDTAVYYCARGYYNSPFAYWGQGTLVTVSS
VL: DIQMTQSPSSLSASVGDRVTITCSASQDISNYLNWYQQKPGKAPKVLIYFTSSLHSGVPSRFSGSGSGTDFTLTISSLQPEDFATYYCQQYSTVPWTFGQGTKVEIKRGGSGGDIQMTQSPSSLSASVGDRVTITCRASEDIYSNLAWYQQKPGKAPKLLIYDTNNLADGVPSRFSGSGSGTDFTLTISSLQPEDFATYYCQQYNNYPPTFGQGTKLEIKR
notes: DVD-Ig
- Kd [1]: 50 nM
- IC50 [2]: 3.41 nM

B2: Av-SL-h1A11.1 (bispecific antibody, human IgG1)
VH: B1 VH with G124A, G125S, G126T, G127K, S128G, G129P
VL: DIQMTQSPSSLSASVGDRVTITCSASQDISNYLNWYQQKPGKAPKVLIYFTSSLHSGVPSRFSGSGSGTDFTLTISSLQPEDFATYYCQQYSTVPWTFGQGTKVEIKRTVAAPSVFIFPPDIQMTQSPSSLSASVGDRVTITCRASEDIYSNLAWYQQKPGKAPKLLIYDTNNLADGVPSRFSGSGSGTDFTLTISSLQPEDFATYYCQQYNNYPPTFGQGTKLEIKR
notes: DVD-Ig
- IC50 [2]: 7.38 nM

B3: Av-LS-h1A11.1 (bispecific antibody, human IgG1)
VH: EVQLVESGGGLVQPGGSLRLSCAASGYTFTNYGMNWVRQAPGKGLEWVGWINTYTGEPTYAADFKRRFTFSLDTSKSTAYLQMNSLRAEDTAVYYCAKYPHYYGSSHWYFDVWGQGTLVTVSSASTKGPSVFPLAPEVQLVESGGGLVQPGGSLRLSCAASGFTFSNFPMAWVRQAPGKGLEWVATISSSDGTTYYRDSVKGRFTISRDNAKNSLYLQMNSLRAEDTAVYYCARGYYNSPFAYWGQGTLVTVSS
VL: B1 VL with G109T, G110V, S111A, G112A, G113P
notes: DVD-Ig
- IC50 [2]: 2.77 nM

B4: Av-SS-h1A11.1 (bispecific antibody, human IgG1)
VH: B1 VH with G124A, G125S, G126T, G127K, S128G, G129P
VL: B1 VL with G109T, G110V, S111A, G112A, G113P
notes: DVD-Ig
- IC50 [2]: 3500 nM

B6: Av-LL-h1A11.1 (bispecific antibody, human IgG1)
VH: B3 VH
VL: B2 VL
notes: DVD-Ig
- IC50 [2]: 2.43 nM

B7: h1A11.1 humanized anti-DLL4 mAb (antibody, V domains shown)
VH: EVQLVESGGGLVQPGGSLRLSCAASGFTFSNFPMAWVRQAPGKGLEWVATISSSDGTTYYRDSVKGRFTISRDNAKNSLYLQMNSLRAEDTAVYYCARGYYNSPFAYWGQGTLVTVSS
VL: DIQMTQSPSSLSASVGDRVTITCRASEDIYSNLAWYQQKPGKAPKLLIYDTNNLADGVPSRFSGSGSGTDFTLTISSLQPEDFATYYCQQYNNYPPTFGQGTKLEIKR
- IC50 (nM), DLL4-Notch reporter assay, h1A11.1 + Av mixture, 0 nM VEGF [3]: 8.64 nM and 9.17 nM
- IC50 (nM), DLL4-Notch reporter assay, h1A11.1 + Av mixture, 6 nM BSG2 (negative control protein) present [3]: 9.55 nM
- IC50 (nM), DLL4-Notch reporter assay, h1A11.1 + Av mixture, 6 nM VEGF present [3]: 9.97 nM
- IC50 (nM), DLL4-Notch reporter assay, h1A11.1 + Av mixture, 150 nM BSG2 (negative control protein) present [3]: 10.9 nM
- IC50 (nM), DLL4-Notch reporter assay, h1A11.1 + Av mixture, 150 nM VEGF present [3]: 10.3 nM

Results, then the binder that gave them:

- Kd [1]: 29 nM
- IC50 [2]: 1.5 nM
B5: Av-GS10-h1A11.1 (bispecific antibody, human IgG1)
VH: EVQLVESGGGLVQPGGSLRLSCAASGYTFTNYGMNWVRQAPGKGLEWVGWINTYTGEPTYAADFKRRFTFSLDTSKSTAYLQMNSLRAEDTAVYYCAKYPHYYGSSHWYFDVWGQGTLVTVSSGGGGSGGGGSEVQLVESGGGLVQPGGSLRLSCAASGFTFSNFPMAWVRQAPGKGLEWVATISSSDGTTYYRDSVKGRFTISRDNAKNSLYLQMNSLRAEDTAVYYCARGYYNSPFAYWGQGTLVTVSS
VL: DIQMTQSPSSLSASVGDRVTITCSASQDISNYLNWYQQKPGKAPKVLIYFTSSLHSGVPSRFSGSGSGTDFTLTISSLQPEDFATYYCQQYSTVPWTFGQGTKVEIKRGGSGGGGSGDIQMTQSPSSLSASVGDRVTITCRASEDIYSNLAWYQQKPGKAPKLLIYDTNNLADGVPSRFSGSGSGTDFTLTISSLQPEDFATYYCQQYNNYPPTFGQGTKLEIKR
notes: DVD-Ig

- Kd [1]: 9.7 nM
- IC50 [2]: 0.68 nM
B8: h1A11.1-GS14-Av (bispecific antibody, human IgG1)
VH: EVQLVESGGGLVQPGGSLRLSCAASGFTFSNFPMAWVRQAPGKGLEWVATISSSDGTTYYRDSVKGRFTISRDNAKNSLYLQMNSLRAEDTAVYYCARGYYNSPFAYWGQGTLVTVSSGGGGSGGGGSGGGGEVQLVESGGGLVQPGGSLRLSCAASGYTFTNYGMNWVRQAPGKGLEWVGWINTYTGEPTYAADFKRRFTFSLDTSKSTAYLQMNSLRAEDTAVYYCAKYPHYYGSSHWYFDVWGQGTLVTVSS
VL: DIQMTQSPSSLSASVGDRVTITCRASEDIYSNLAWYQQKPGKAPKLLIYDTNNLADGVPSRFSGSGSGTDFTLTISSLQPEDFATYYCQQYNNYPPTFGQGTKLEIKRGGSGGGGSGGGGSDIQMTQSPSSLSASVGDRVTITCSASQDISNYLNWYQQKPGKAPKVLIYFTSSLHSGVPSRFSGSGSGTDFTLTISSLQPEDFATYYCQQYSTVPWTFGQGTKVEIKR
notes: DVD-Ig

- Kd [1]: 9.3 nM
- IC50 [2]: 0.65 nM
B9: h1A11.1-GS10-Av (bispecific antibody, human IgG1)
VH: EVQLVESGGGLVQPGGSLRLSCAASGFTFSNFPMAWVRQAPGKGLEWVATISSSDGTTYYRDSVKGRFTISRDNAKNSLYLQMNSLRAEDTAVYYCARGYYNSPFAYWGQGTLVTVSSGGGGSGGGGSEVQLVESGGGLVQPGGSLRLSCAASGYTFTNYGMNWVRQAPGKGLEWVGWINTYTGEPTYAADFKRRFTFSLDTSKSTAYLQMNSLRAEDTAVYYCAKYPHYYGSSHWYFDVWGQGTLVTVSS
VL: DIQMTQSPSSLSASVGDRVTITCRASEDIYSNLAWYQQKPGKAPKLLIYDTNNLADGVPSRFSGSGSGTDFTLTISSLQPEDFATYYCQQYNNYPPTFGQGTKLEIKRGGSGGGGSGDIQMTQSPSSLSASVGDRVTITCSASQDISNYLNWYQQKPGKAPKVLIYFTSSLHSGVPSRFSGSGSGTDFTLTISSLQPEDFATYYCQQYSTVPWTFGQGTKVEIKR
notes: DVD-Ig; also called h1A11.GS10-Av

- Kd [1]: 34 nM
- IC50 [2]: 1.54 nM
B10: Av-GS14-h1A11.1 (bispecific antibody, human IgG1)
VH: EVQLVESGGGLVQPGGSLRLSCAASGYTFTNYGMNWVRQAPGKGLEWVGWINTYTGEPTYAADFKRRFTFSLDTSKSTAYLQMNSLRAEDTAVYYCAKYPHYYGSSHWYFDVWGQGTLVTVSSGGGGSGGGGSGGGGEVQLVESGGGLVQPGGSLRLSCAASGFTFSNFPMAWVRQAPGKGLEWVATISSSDGTTYYRDSVKGRFTISRDNAKNSLYLQMNSLRAEDTAVYYCARGYYNSPFAYWGQGTLVTVSS
VL: DIQMTQSPSSLSASVGDRVTITCSASQDISNYLNWYQQKPGKAPKVLIYFTSSLHSGVPSRFSGSGSGTDFTLTISSLQPEDFATYYCQQYSTVPWTFGQGTKVEIKRGGSGGGGSGGGSDIQMTQSPSSLSASVGDRVTITCRASEDIYSNLAWYQQKPGKAPKLLIYDTNNLADGVPSRFSGSGSGTDFTLTISSLQPEDFATYYCQQYNNYPPTFGQGTKLEIKR
notes: DVD-Ig
